Positions of bridges follow the written chain, without caps; N, C: chain ends. fluorescein = fluorescein, an N-terminal fluorescent label
Target: T1, Mcl-1 (Mus musculus, UniProt P97287)
T1 chain: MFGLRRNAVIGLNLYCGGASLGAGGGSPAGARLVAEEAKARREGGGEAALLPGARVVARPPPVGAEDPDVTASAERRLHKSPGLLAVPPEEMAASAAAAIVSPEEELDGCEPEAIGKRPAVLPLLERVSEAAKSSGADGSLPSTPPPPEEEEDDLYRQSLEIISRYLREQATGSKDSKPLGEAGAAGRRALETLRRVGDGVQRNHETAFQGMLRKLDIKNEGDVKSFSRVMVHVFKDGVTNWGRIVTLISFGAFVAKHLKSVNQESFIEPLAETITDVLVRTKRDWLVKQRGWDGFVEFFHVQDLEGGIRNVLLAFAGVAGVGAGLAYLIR
Experiment: competitive fluorescence polarization

Binder	Ki [nM]
AACLRAIGDCVNLAQALLN (HELM PEPTIDE1{[COC(=O)[*:2]].[meA].[meA].[dC].L.R.A.I.G.D.C.V.N.L.A.Q.A.L.L.N.[am]}|CHEM1{[c1cc(-c2ccc(C[*:2])cc2)ccc1C[*:1]]}$PEPTIDE1,CHEM1,4:R3-1:R1|PEPTIDE1,CHEM1,11:R3-1:R2$$$V2.0; SMILES CC[C@H](C)[C@@H]1NC(=O)[C@H](C)NC(=O)[C@H](CCCNC(=N)N)NC(=O)[C@H](CC(C)C)NC(=O)[C@H](NC(=O)[C@H](C)N(C)C(=O)[C@H](C)N(C)C(=O)OC)CSCc2ccc(cc2)-c2ccc(cc2)CSC[C@@H](C(=O)N[C@H](C(=O)N[C@@H](CC(N)=O)C(=O)N[C@@H](CC(C)C)C(=O)N[C@@H](C)C(=O)N[C@@H](CCC(N)=O)C(=O)N[C@@H](C)C(=O)N[C@@H](CC(C)C)C(=O)N[C@@H](CC(C)C)C(=O)N[C@@H](CC(N)=O)C(N)=O)C(C)C)NC(=O)[C@H](CC(=O)O)NC(=O)CNC1=O) [Noxa peptide 8]	22
AACLRRIGDCVNLRQKLLN (HELM PEPTIDE1{[ac].A.A.C.L.R.R.I.G.D.C.V.N.L.R.Q.K.L.L.N.[am]}|CHEM1{[c1cc(-c2ccc(C[*:2])cc2)ccc1C[*:1]]}$PEPTIDE1,CHEM1,4:R3-1:R1|PEPTIDE1,CHEM1,11:R3-1:R2$$$V2.0; SMILES CC[C@H](C)[C@@H]1NC(=O)[C@H](CCCNC(=N)N)NC(=O)[C@H](CCCNC(=N)N)NC(=O)[C@H](CC(C)C)NC(=O)[C@@H](NC(=O)[C@H](C)NC(=O)[C@H](C)NC(C)=O)CSCc2ccc(cc2)-c2ccc(cc2)CSC[C@@H](C(=O)N[C@H](C(=O)N[C@@H](CC(N)=O)C(=O)N[C@@H](CC(C)C)C(=O)N[C@@H](CCCNC(=N)N)C(=O)N[C@@H](CCC(N)=O)C(=O)N[C@@H](CCCCN)C(=O)N[C@@H](CC(C)C)C(=O)N[C@@H](CC(C)C)C(=O)N[C@@H](CC(N)=O)C(N)=O)C(C)C)NC(=O)[C@H](CC(=O)O)NC(=O)CNC1=O) [Noxa peptide 1]	10
AACLRAIGDCVNLAQKLLN (HELM PEPTIDE1{[ac].A.A.[dC].L.R.A.I.G.D.C.V.N.L.A.Q.K.L.L.N.[am]}|CHEM1{[c1cc(-c2ccc(C[*:2])cc2)ccc1C[*:1]]}$PEPTIDE1,CHEM1,4:R3-1:R1|PEPTIDE1,CHEM1,11:R3-1:R2$$$V2.0; SMILES CC[C@H](C)[C@@H]1NC(=O)[C@H](C)NC(=O)[C@H](CCCNC(=N)N)NC(=O)[C@H](CC(C)C)NC(=O)[C@H](NC(=O)[C@H](C)NC(=O)[C@H](C)NC(C)=O)CSCc2ccc(cc2)-c2ccc(cc2)CSC[C@@H](C(=O)N[C@H](C(=O)N[C@@H](CC(N)=O)C(=O)N[C@@H](CC(C)C)C(=O)N[C@@H](C)C(=O)N[C@@H](CCC(N)=O)C(=O)N[C@@H](CCCCN)C(=O)N[C@@H](CC(C)C)C(=O)N[C@@H](CC(C)C)C(=O)N[C@@H](CC(N)=O)C(N)=O)C(C)C)NC(=O)[C@H](CC(=O)O)NC(=O)CNC1=O) [Noxa peptide 4]	28
AACLRRIGDCVNLRQKLLN (HELM PEPTIDE1{[COC(=O)[*:2]].[meA].[meA].[dC].L.R.R.I.G.D.C.V.N.L.R.Q.K.L.L.N.[am]}|CHEM1{[c1cc(-c2ccc(C[*:2])cc2)ccc1C[*:1]]}$PEPTIDE1,CHEM1,4:R3-1:R1|PEPTIDE1,CHEM1,11:R3-1:R2$$$V2.0; SMILES CC[C@H](C)[C@@H]1NC(=O)[C@H](CCCNC(=N)N)NC(=O)[C@H](CCCNC(=N)N)NC(=O)[C@H](CC(C)C)NC(=O)[C@H](NC(=O)[C@H](C)N(C)C(=O)[C@H](C)N(C)C(=O)OC)CSCc2ccc(cc2)-c2ccc(cc2)CSC[C@@H](C(=O)N[C@H](C(=O)N[C@@H](CC(N)=O)C(=O)N[C@@H](CC(C)C)C(=O)N[C@@H](CCCNC(=N)N)C(=O)N[C@@H](CCC(N)=O)C(=O)N[C@@H](CCCCN)C(=O)N[C@@H](CC(C)C)C(=O)N[C@@H](CC(C)C)C(=O)N[C@@H](CC(N)=O)C(N)=O)C(C)C)NC(=O)[C@H](CC(=O)O)NC(=O)CNC1=O) [Noxa peptide 7]	22
AACLRAIGDCVNLAQALLN (HELM PEPTIDE1{[ac].A.A.[dC].L.R.A.I.G.D.C.V.N.L.A.Q.A.L.L.N.[am]}|CHEM1{[c1cc(-c2ccc(C[*:2])cc2)ccc1C[*:1]]}$PEPTIDE1,CHEM1,4:R3-1:R1|PEPTIDE1,CHEM1,11:R3-1:R2$$$V2.0; SMILES CC[C@H](C)[C@@H]1NC(=O)[C@H](C)NC(=O)[C@H](CCCNC(=N)N)NC(=O)[C@H](CC(C)C)NC(=O)[C@H](NC(=O)[C@H](C)NC(=O)[C@H](C)NC(C)=O)CSCc2ccc(cc2)-c2ccc(cc2)CSC[C@@H](C(=O)N[C@H](C(=O)N[C@@H](CC(N)=O)C(=O)N[C@@H](CC(C)C)C(=O)N[C@@H](C)C(=O)N[C@@H](CCC(N)=O)C(=O)N[C@@H](C)C(=O)N[C@@H](CC(C)C)C(=O)N[C@@H](CC(C)C)C(=O)N[C@@H](CC(N)=O)C(N)=O)C(C)C)NC(=O)[C@H](CC(=O)O)NC(=O)CNC1=O) [Noxa peptide 5]	29
AACLRAIGDCVNLRQKLLN (HELM PEPTIDE1{[ac].A.A.[dC].L.R.A.I.G.D.C.V.N.L.R.Q.K.L.L.N.[am]}|CHEM1{[c1cc(-c2ccc(C[*:2])cc2)ccc1C[*:1]]}$PEPTIDE1,CHEM1,4:R3-1:R1|PEPTIDE1,CHEM1,11:R3-1:R2$$$V2.0; SMILES CC[C@H](C)[C@@H]1NC(=O)[C@H](C)NC(=O)[C@H](CCCNC(=N)N)NC(=O)[C@H](CC(C)C)NC(=O)[C@H](NC(=O)[C@H](C)NC(=O)[C@H](C)NC(C)=O)CSCc2ccc(cc2)-c2ccc(cc2)CSC[C@@H](C(=O)N[C@H](C(=O)N[C@@H](CC(N)=O)C(=O)N[C@@H](CC(C)C)C(=O)N[C@@H](CCCNC(=N)N)C(=O)N[C@@H](CCC(N)=O)C(=O)N[C@@H](CCCCN)C(=O)N[C@@H](CC(C)C)C(=O)N[C@@H](CC(C)C)C(=O)N[C@@H](CC(N)=O)C(N)=O)C(C)C)NC(=O)[C@H](CC(=O)O)NC(=O)CNC1=O) [Noxa peptide 3]	23
AACLRRIGDCVNLRQKLLN (HELM PEPTIDE1{[ac].A.A.[dC].L.R.R.I.G.D.C.V.N.L.R.Q.K.L.L.N.[am]}|CHEM1{[c1cc(-c2ccc(C[*:2])cc2)ccc1C[*:1]]}$PEPTIDE1,CHEM1,4:R3-1:R1|PEPTIDE1,CHEM1,11:R3-1:R2$$$V2.0; SMILES CC[C@H](C)[C@@H]1NC(=O)[C@H](CCCNC(=N)N)NC(=O)[C@H](CCCNC(=N)N)NC(=O)[C@H](CC(C)C)NC(=O)[C@H](NC(=O)[C@H](C)NC(=O)[C@H](C)NC(C)=O)CSCc2ccc(cc2)-c2ccc(cc2)CSC[C@@H](C(=O)N[C@H](C(=O)N[C@@H](CC(N)=O)C(=O)N[C@@H](CC(C)C)C(=O)N[C@@H](CCCNC(=N)N)C(=O)N[C@@H](CCC(N)=O)C(=O)N[C@@H](CCCCN)C(=O)N[C@@H](CC(C)C)C(=O)N[C@@H](CC(C)C)C(=O)N[C@@H](CC(N)=O)C(N)=O)C(C)C)NC(=O)[C@H](CC(=O)O)NC(=O)CNC1=O) [Noxa peptide 2]	54
AACLRRIGDCVNLRQKLLN (HELM PEPTIDE1{[COC(=O)[*:2]].[meA].A.[dC].L.R.R.I.G.D.C.V.N.L.R.Q.K.L.L.N.[am]}|CHEM1{[c1cc(-c2ccc(C[*:2])cc2)ccc1C[*:1]]}$PEPTIDE1,CHEM1,4:R3-1:R1|PEPTIDE1,CHEM1,11:R3-1:R2$$$V2.0; SMILES CC[C@H](C)[C@@H]1NC(=O)[C@H](CCCNC(=N)N)NC(=O)[C@H](CCCNC(=N)N)NC(=O)[C@H](CC(C)C)NC(=O)[C@H](NC(=O)[C@H](C)NC(=O)[C@H](C)N(C)C(=O)OC)CSCc2ccc(cc2)-c2ccc(cc2)CSC[C@@H](C(=O)N[C@H](C(=O)N[C@@H](CC(N)=O)C(=O)N[C@@H](CC(C)C)C(=O)N[C@@H](CCCNC(=N)N)C(=O)N[C@@H](CCC(N)=O)C(=O)N[C@@H](CCCCN)C(=O)N[C@@H](CC(C)C)C(=O)N[C@@H](CC(C)C)C(=O)N[C@@H](CC(N)=O)C(N)=O)C(C)C)NC(=O)[C@H](CC(=O)O)NC(=O)CNC1=O) [Noxa peptide 6]	32

The binders below were run against Bcl-xL (Homo sapiens, UniProt Q07817) (assay: fluorescence polarization).
Bcl-xL, sequence (Q07817 whole entry): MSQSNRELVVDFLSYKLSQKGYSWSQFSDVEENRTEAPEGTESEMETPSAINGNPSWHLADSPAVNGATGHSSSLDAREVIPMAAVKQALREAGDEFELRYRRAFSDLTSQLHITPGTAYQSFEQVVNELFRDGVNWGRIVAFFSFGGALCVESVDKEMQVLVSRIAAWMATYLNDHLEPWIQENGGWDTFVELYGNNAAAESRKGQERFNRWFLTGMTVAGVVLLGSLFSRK

Binder	Kd [nM]
fluorescein-AACLRRIGDCVNLRQKLLN-NH2 (linker 3-10 via biphenyl) [Fl-1 (Bph-cross-linked Noxa peptide 1)]	> 1000

Reference: publication PMC3472523 (2012)
